As a reminder, the Kd is a measure of binding affinity in units of concentration. Low values mean higher affinity, high ones lower affinity.

The text below walks through data of article PMC3858276, “Completion of Proteomic Data Sets by Kd Measurement Using Cell-Free Synthesis of Site-Specifically Labeled Proteins” (PLoS ONE, 2013).

Where no end group is shown, it is not given here.

To fix the notation:
B1: RasaN (N-terminal SH2 domain of Rasa1) without biotin (for MST) (domain or fragment, UniProt P20936 181-272, looked up)
chain: WYHGKLDRTIAEERLRQAGKSGSYLIRESDRRPGSFVLSFLSQMNVVNHFRIIAMCGDYYIGGRRFSSLSDLIGYYSHVSCLLKGEKLLYPV
notes: Rasa1, isolated N-terminal SH2 domain; same linear template as m17, cloned into pIX3.0; source: cell-free (RTS500 PM HY kit, plasmid pIX3.0), partly purified by buffer exchange to PBS and ultracentrifugation
B2: SH2D1A without biotin (for MST) (natural protein, UniProt O60880 1-128, looked up)
chain: MDAVAVYHGKISRETGEKLLLATGLDGSYLLRDSESVPGVYCLCVLYHGYIYTYRVSQTETGSWSAETAPGVHKRYFRKIKNLISAFQKPDQGIVIPLQYPVEKKSSARSTQGTTGIREDPDVCLKAP
notes: SH2D1A; same linear template as m7, cloned into pIX3.0; source: cell-free (RTS500 PM HY kit, plasmid pIX3.0), partly purified by buffer exchange to PBS and ultracentrifugation
B3: phosphorylated SNAP-ADAP fusion protein (ADAP amino acids 570-690) (domain or fragment, human, UniProt O15117 570-690, looked up)
chain: DYDSLKLKKDSLGAPSRPIEDDQEVYDDVAEQDDISSHSQSGSGGIFPPPPDDDIYDGIEEEDADDGFPAPPKQLDMGDEVYDDVDTSDFPVSSAEMSQGTNVGKAKTEEKDLKKLKKQEK
modifications: phosphotyrosine (in vitro phosphorylation by Fyn kinase, approx. 90% of each phosphorylation site; sites in Table S1); BG-647 dye on the SNAP-tag
notes: adhesion and degranulation promoting adapter protein (ADAP), human, section 570-690; Cloned into the SNAP-tag vector pSET7-26b (NEB) via BamHI, XhoI; also called ADAP-P; phosphorylated ADAP; not shown: SNAP-tag, N-terminal, kept
B4: phosphorylated SNAP-YEEI fusion (middle T antigen aa 315-331) (peptide)
chain: THQEEEEPQYEEIPIYL
modifications: not fully specified; also: tyrosine phosphorylation in vitro by Fyn, degree not placed
notes: Middle T antigen of Hamster Polyomavirus, aa 315-331 with the Y324EEI motif; also called phosphorylated YEEI; YEEI fusion construct; not shown: SNAP-tag, N-terminal, kept
B5: SLP-76 SH2 domain without biotin (for MST) (domain or fragment, UniProt Q13094 422-530, looked up)
chain: WYVSYITRPEAEAALRKINQDGTFLVRDSSKKTTTNPYVLMVLYKDKVYNIQIRYQKESQVYLLGTGLRGKEDFLSVSDIIDYFRKMPLLLIDGKNRGSRYQCTLTHAA
notes: SLP-76; same linear template as m10, cloned into pIX3.0; source: cell-free (RTS500 PM HY kit, plasmid pIX3.0), partly purified by buffer exchange to PBS and ultracentrifugation
B6: Lck SH2 domain without biotin (for MST) (domain or fragment, UniProt P06239 127-224, looked up)
chain: WFFKNLSRKDAERQLLAPGNTHGSFLIRESESTAGSFSLSVRDFDQNQGEVVKHYKIRNLDNGGFYISPRITFPGLHELVRHYTNASDGLCTRLSRPC
notes: Lck, SH2 domain; same linear template as m8, cloned into pIX3.0; source: cell-free (RTS500 PM HY kit, plasmid pIX3.0), partly purified by buffer exchange to PBS and ultracentrifugation

Common to all, as to conditions: one partner purified
Experiment [1] addresses B3. The experiment in a line: MST; SH2 proteins (only partly purified) serially diluted in 1x PBS with 1.75% (v/v) E. coli extract; fluorescent ADAP at 12 nM; 5 min at RT; Monolith NT.115.
The target of experiment [2] is T1, Rasa1b (Rasa1 sequence 174-447) without biotin (for MST) (UniProt P20936 174-447).
T1 construct: same linear template as m11, cloned into pIX3.0; source: cell-free (RTS500 PM HY kit, plasmid pIX3.0), partly purified by buffer exchange to PBS and ultracentrifugation
T1 sequence (looked up): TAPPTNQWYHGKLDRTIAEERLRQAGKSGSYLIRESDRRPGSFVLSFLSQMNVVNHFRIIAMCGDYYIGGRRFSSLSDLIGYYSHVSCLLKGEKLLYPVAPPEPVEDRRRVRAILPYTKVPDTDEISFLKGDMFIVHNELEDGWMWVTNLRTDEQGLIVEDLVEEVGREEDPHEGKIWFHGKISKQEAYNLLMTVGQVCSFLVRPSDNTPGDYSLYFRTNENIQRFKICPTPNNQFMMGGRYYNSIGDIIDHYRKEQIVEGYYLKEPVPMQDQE
The experiment is described as above.

The target in experiment [3] is T2, Src SH2 domain without biotin (for MST) (UniProt P12931 151-248).
T2 construct: Src, SH2 domain; same linear template as m6, cloned into pIX3.0; source: cell-free (RTS500 PM HY kit, plasmid pIX3.0), partly purified by buffer exchange to PBS and ultracentrifugation
Description: MST; as for ADAP, with the fluorescent YEEI fusion and 0.05% Tween-20 (v/v) added to the interaction buffer; SH2 proteins (only partly purified) serially diluted.

Regarding B1, the Kd in experiment [1] is roughly 100 nM.
As for B2, the “fold weaker binding than the SH2 domains of Src, Lck and Fyn” value in experiment [1] was 6 fold.
Take B3: the Kd in experiment [2] was roughly 100 nM.
Turning to B4, in experiment [3], the dissociation constant Kd was roughly 515 nM.
Consider B5, for which the Kd in experiment [1] is roughly 400 nM.
Molecule B6 yielded a Kd in experiment [1] of roughly 1000 nM.
